Columns and labels:
Assay in all cases: radioligand binding
Conditions in all cases: one partner purified
[1] = molecular target: T1, wild type human CCR5 chemokine receptor (human, UniProt P51681 1-352)
T1 construct: source: HOS-CD4-Luc, transiently transfected, on cells (fusion)

[2] = molecular target: T2, CCR5 Thr^2.56(82)Pro mutant receptor (human, UniProt P51681 1-352, Thr^2.56(82)Pro)
T2 construct: also called T^2.69(82)P; source: HOS-CD4-Luc, transiently transfected, on cells (fusion)
T2 sequence: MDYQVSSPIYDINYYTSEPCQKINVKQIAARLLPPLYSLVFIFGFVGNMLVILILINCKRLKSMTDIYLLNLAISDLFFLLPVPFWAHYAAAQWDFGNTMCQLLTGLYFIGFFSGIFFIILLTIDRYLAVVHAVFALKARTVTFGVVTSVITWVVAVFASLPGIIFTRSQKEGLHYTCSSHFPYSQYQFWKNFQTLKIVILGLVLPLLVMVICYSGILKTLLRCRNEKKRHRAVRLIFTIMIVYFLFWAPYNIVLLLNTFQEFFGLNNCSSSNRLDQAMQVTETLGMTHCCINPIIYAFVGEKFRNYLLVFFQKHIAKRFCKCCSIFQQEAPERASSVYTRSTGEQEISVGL

[3] = molecular target: T3, CCR5 Thr^2.56(82)Lys/Arg^6.32(225)Gln double-mutant receptor (human, UniProt P51681 1-352, Thr^2.56(82)Lys | Arg^6.32(225)Gln)
T3 construct: also called T^2.56(82)K/R^6.32(225)Q; T^2.69(82)K/R^6.32(225)Q; source: HOS-CD4-Luc, transiently transfected, on cells (fusion)
T3 sequence: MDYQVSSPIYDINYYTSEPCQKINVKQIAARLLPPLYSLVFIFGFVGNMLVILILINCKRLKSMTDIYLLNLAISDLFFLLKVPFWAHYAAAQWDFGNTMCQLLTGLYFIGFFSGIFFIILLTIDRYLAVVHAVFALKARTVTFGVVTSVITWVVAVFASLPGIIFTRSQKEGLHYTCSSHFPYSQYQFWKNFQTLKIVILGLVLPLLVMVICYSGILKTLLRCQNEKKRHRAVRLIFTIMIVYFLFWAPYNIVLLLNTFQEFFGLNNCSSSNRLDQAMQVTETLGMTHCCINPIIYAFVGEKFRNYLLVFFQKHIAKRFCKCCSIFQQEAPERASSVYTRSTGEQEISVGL

[4] = molecular target: T4, CCR5 Thr^2.56(82)Pro/Arg^6.32(225)Gln double-mutant receptor (human, UniProt P51681 1-352, Thr^2.56(82)Pro | Arg^6.32(225)Gln)
T4 construct: also called T^2.56(82)P/R^6.32(225)Q; T^2.69(82)P/R^6.32(225)Q; source: HOS-CD4-Luc, transiently transfected, on cells (fusion)
T4 sequence: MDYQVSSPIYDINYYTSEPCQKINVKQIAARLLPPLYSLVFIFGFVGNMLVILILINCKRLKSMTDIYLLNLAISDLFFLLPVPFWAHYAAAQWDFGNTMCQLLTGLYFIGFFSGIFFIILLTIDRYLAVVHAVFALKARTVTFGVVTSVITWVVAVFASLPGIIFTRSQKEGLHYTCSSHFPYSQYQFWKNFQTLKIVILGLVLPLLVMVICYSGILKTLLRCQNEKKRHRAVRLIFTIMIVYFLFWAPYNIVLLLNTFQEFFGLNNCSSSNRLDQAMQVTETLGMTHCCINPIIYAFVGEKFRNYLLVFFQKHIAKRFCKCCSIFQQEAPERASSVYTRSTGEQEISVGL

B1: macrophage inflammatory protein 1β (MIP-1β, CCL4), recombinant human, unlabelled (ligand)
chain: APMGSDPPTACCFSYTARKLPRNFVVDYYETSSLCSQPAVVFQTKRSKQVCADPSESWVQEYVYDLELN
notes: also called unlabelled MIP-1β; source: bought: Peprotec (Rocky Hill, NJ)
IC50 [1]: 0.0326 µM
IC50 [2]: 0.0319 µM
IC50 [3]: 0.0207 µM
IC50 [4]: 0.0306 µM

Source: article PMC3552960, “Constitutively Active CCR5 Chemokine Receptors Differ in Mediating HIV Envelope-dependent Fusion” (PLoS ONE, 2013)
